{
  "source": "paper PMC2683335",
  "about": "(The Journal of biological chemistry, 2008)",
  "molecules": {"B1": {"name": "Methanothermobacter thermautotrophicus MCM (MthMCM), wild type (natural protein, UniProt O27798 1-666, looked up)", "chain": "MMKTVDKSKTLTKFEEFFSLQDYKDRVFEAIEKYPNVRSIEVDYLDLEMFDPDLADLLIEKPDDVIRAAQQAIRNIDRLRKNVDLNIRFSGISNVIPLRELRSKFIGKFVAVDGIVRKTDEIRPRIVKAVFECRGCMRHHAVTQSTNMITEPSLCSECGGRSFRLLQDESEFLDTQTLKLQEPLENLSGGEQPRQITVVLEDDLVDTLTPGDIVRVTGTLRTVRDERTKRFKNFIYGNYTEFLEQEFEELQISEEDEEKIKELAGDPNIYEKIIRSTAPSIHGYREVKEAIALQLFGGTGKELDDKTRLRGDIHILIVGDPGIGKSQMLKYVSKLAPRGIYTSGKGTSGVGLTAAAVRDEFGGWSLEAGALVLGDKGNVCVDELDKMREEDRSAIHEALEQQTISIAKAGIMATLNSRCSVLAAANPKFGRFDSYKSIAEQIDLPSTILSRFDLIFVVEDKPDEEKDRELARHILKTHKEDHMPFEIDPELLRKYIAYARKNVRPVLTDEAMQVLEDFYVSMRASAADEDSPVPITARQLEALVRLSEASAKIKLKEHVEAEDARKAIKLSQACLKQVGYDPETGKIDIDKVEGRTPKSERDKFRLLLELIKEYEDDYGGRAPTNILITEMMDRYNVSEEKVEELIRILKDKGAIFEPARGYLKIV"}},
  "key": {"[1]": {"target": "MthMCM RR137,160AA double mutant (Methanothermobacter thermautotrophicus)", "assay": "AUC"}, "[2]": {"target": "MthMCM R137A mutant (Methanothermobacter thermautotrophicus)", "assay": "negative-stain electron microscopy"}, "[3]": {"target": "the molecule itself", "assay": "AUC"}, "[4]": {"target": "the molecule itself", "assay": "SEC + other: sucrose gradient sedimentation"}},
  "data": [
    {"molecule": "MthMCM RR137,160AA double mutant (natural protein)", "values": [
      {"measurement": "stoichiometry N", "setting": "[1]", "result": 7, "unit": "subunits"}
    ]},
    {"molecule": "MthMCM R137A mutant (natural protein)", "values": [
      {"measurement": "stoichiometry N", "setting": "[2]", "result": 14, "unit": "subunits"}
    ]},
    {"molecule": "B1", "values": [
      {"measurement": "stoichiometry N", "setting": "[3]", "result": 12.2, "unit": "subunits/complex"},
      {"measurement": "stoichiometry N", "setting": "[4]", "result": 11.6, "unit": "monomers"}
    ]}
  ]
}
